{"source": "patent CN111110862A", "about": "(dated 2020)", "binders": {"B1": {"name": "Ab24抗体 (antibody, human IgG1, kappa, V domains shown)", "VH": "QVQLVQSGAEVKKPGSSVKVSCKASGYAFSNYLIEWVRQAPGQGLEWMGLINPGSGGTNYNEKFKGKVTITADKSTSTAYMELSSLRSEDTAVYYCARVYYGNTFAYWGQGTLVTVSS", "VL": "DIVMTQSPDSLAVSLGERATINCKSSQSLLNTGNNKNYLAWYQQKPGQPPKLLIYWASTRESGVPDRFSGSGSGTDFTLTISSLQAEDVAVYYCQNDYFYPFTFGQGTKLEIKR"}, "B2": {"name": "Ab36抗体 (antibody, human IgG1, kappa, V domains shown)", "VH": "QVQLVQSGAEVKKPGSSVKVSCKASGYAFSNYLIEWVKQAPGQGLEWIGLINPGSGGTNYNEKFKGKATITADKSTSTAYMELSSLRSEDTAVYYCARVYYGNTFAYWGQGTLVTVSS", "VL": "DIVMTQSPDSLAVSLGERATISCKSSQSLLNTGNNKNYLAWYQQKPGQPPKLLIYWASTRESGVPDRFSGSGSGTDFTLTISSLQAEDVAVYYCQNDYFYPFTFGQGTKLEIKR"}, "B3": {"name": "Ab51抗体 (antibody, human IgG1, kappa, V domains shown)", "VH": "QVQLVQSGAEVKKPGSSVKVSCKASGYAFSNYLIEWVRQAPGQGLEWMGLINPGSGGTNYNEKFKGRVTITADESTSTAYMELSSLRSEDTAVYYCARVYYGNTFAYWGQGTLVTVSS", "VL": "DIVMTQSPDSLAVSLGERATINCKSSQSLLNTGNNKNYLAWYQQKPGQPPKLLIYWASTRESGVPDRFSGSGSGTDFTLTISSLQAEDVAVYYCQNDYFYPFTFGQGTKLEIKR"}, "B4": {"name": "anti-hCLDN18.2鼠源抗体mab5b (antibody, human IgG1, kappa, V domains shown)", "VH": "QVQLQQSGAELIGPGTSVKVSCKASGYAFSNYLIEWVKQRPEQGLEWIGLINPGSGGTNYNEKFKGKATLTADKSSSTAYMQLSSLTSDDSAVYFCARVYYGNSFAYWGQGTLVTVSA", "VL": "DIVMTQSPSSLTVTAGEKVTMSCKSSQSLLNSGNQKNYLTWYQQKPGQPPKLLIYWASTRESGVPDRFTGSGSGTHFTLTISSVQAEDLAVYYCQNDYFYPFTFGSGTKLEKKR"}}, "key": {"人CLDN18.2(hCLDN18.2) [1]": {"biological_target": "T1, 人CLDN18.2(hCLDN18.2) (human, UniProt P56856 24-261)", "test": "cell-based or functional assay"}, "人CLDN18.2(hCLDN18.2) [2]": {"biological_target": "T1, 人CLDN18.2(hCLDN18.2)", "test": "cell-based or functional assay", "remark": "listed apart in the source"}, "鼠CLDN18.2(mCLDN18.2)": {"biological_target": "T2, 鼠CLDN18.2(mCLDN18.2) (mouse, UniProt P56857 10-264)", "T2 construct": "also called mouse claudin-18 isoform A2.1; mCLDN18.2+cell", "T2 chain": "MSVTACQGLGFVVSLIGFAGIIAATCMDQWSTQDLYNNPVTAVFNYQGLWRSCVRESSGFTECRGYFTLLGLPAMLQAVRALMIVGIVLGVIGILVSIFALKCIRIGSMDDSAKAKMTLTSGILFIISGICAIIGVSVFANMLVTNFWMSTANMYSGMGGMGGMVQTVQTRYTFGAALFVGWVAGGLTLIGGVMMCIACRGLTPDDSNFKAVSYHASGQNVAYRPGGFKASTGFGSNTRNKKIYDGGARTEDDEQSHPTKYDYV", "test": "cell ELISA on fixed mCLDN18.2+cell"}, "鼠CLDN18.1(mCLDN18.1)": {"biological_target": "T3, 鼠CLDN18.1(mCLDN18.1) (mouse, UniProt P56857 1-264)", "T3 construct": "also called mouse claudin-18 isoform A1.1; mCLDN18.1+cell", "T3 sequence": "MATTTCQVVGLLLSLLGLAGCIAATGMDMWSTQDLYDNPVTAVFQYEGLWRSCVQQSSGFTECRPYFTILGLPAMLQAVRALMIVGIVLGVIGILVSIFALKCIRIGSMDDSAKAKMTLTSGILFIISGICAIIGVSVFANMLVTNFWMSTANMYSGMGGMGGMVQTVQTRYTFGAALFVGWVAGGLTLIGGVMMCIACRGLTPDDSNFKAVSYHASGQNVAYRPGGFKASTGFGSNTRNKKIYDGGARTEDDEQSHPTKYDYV", "test": "cell ELISA on fixed mCLDN18.1+cell"}, "人CLDN18.1(hCLDN18.1)": {"biological_target": "T4, 人CLDN18.1(hCLDN18.1) (human, UniProt P56856 1-261)", "T4 construct": "also called human claudin-18 isoform 1; 密蛋白18.1", "T4 sequence": "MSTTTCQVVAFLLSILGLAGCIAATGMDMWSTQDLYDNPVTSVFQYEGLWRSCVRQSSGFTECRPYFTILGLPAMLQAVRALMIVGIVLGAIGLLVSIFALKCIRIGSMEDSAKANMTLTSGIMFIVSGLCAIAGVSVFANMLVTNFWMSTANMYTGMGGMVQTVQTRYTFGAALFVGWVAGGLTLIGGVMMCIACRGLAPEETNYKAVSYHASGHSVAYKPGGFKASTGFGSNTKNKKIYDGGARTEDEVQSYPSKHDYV", "test": "cell ELISA on fixed hCLDN18.1+cell"}}, "note": "Like-named read-outs stand apart in the source and are kept apart here.", "data": [{"binder": "B1", "values": [{"measurement": "CDC EC50 (LDH release, human serum, hCLDN18.2+ target cells)", "setting": "人CLDN18.2(hCLDN18.2) [1]", "value": 0.255, "unit": "µg/mL"}, {"measurement": "CDC EC50 (LDH release, human serum, hCLDN18.2+ target cells)", "setting": "人CLDN18.2(hCLDN18.2) [2]", "value": 1.3, "unit": "µg/mL"}]}, {"binder": "B2", "values": [{"measurement": "CDC EC50 (LDH release, human serum, hCLDN18.2+ target cells)", "setting": "人CLDN18.2(hCLDN18.2) [2]", "value": 1.75, "unit": "µg/mL"}]}, {"binder": "B3", "values": [{"measurement": "CDC EC50 (LDH release, human serum, hCLDN18.2+ target cells)", "setting": "人CLDN18.2(hCLDN18.2) [2]", "value": 2.12, "unit": "µg/mL"}]}, {"binder": "B4", "values": [{"measurement": "fold better binding (EC50) than Ref", "setting": "鼠CLDN18.2(mCLDN18.2)", "value": "> 4", "unit": "fold"}, {"measurement": "fold higher Emax than Ref", "setting": "鼠CLDN18.2(mCLDN18.2)", "value": "> 1", "unit": "fold"}, {"measurement": "binding result", "setting": "鼠CLDN18.1(mCLDN18.1)", "value": "no binding (tested: 200nM)"}, {"measurement": "binding result", "setting": "人CLDN18.1(hCLDN18.1)", "value": "no binding (tested: 200nM)"}]}]}
